Results: patent US20050032145A1, “Methods for measuring activity of glutamine:fructose 6-phosphate amidotransferase and activity of inhibitors thereof” (priority 2002, published 2005)

Tests used:
[1] = substrate: NC(=O)CC[C@H](N)C(=O)O; experiment: Substrate Km determination, Lineweaver-Burk plot (GFAT-alpha); assay type: biochemical, human; settings: other: extracts from transfected SF9 insect cells, other substrate at saturating levels
Procedure: (§1) FIG. 3 illustrates the effect of varying concentrations of the substrates glutamine and fructose 6-phosphate on the enzyme activity of GFAT-alpha and GFAT-beta. FIG. 3A is a graph illustrating incubation with 10 μl glutamine 200 mM+10 μl fructose 6-phosphate 3.125, 6.25, 12.5, 25, 50, 100, and 200 mM. FIG. 3B is a graph illustrating incubation with 10 μl fructose 6-phosphate 200 mM+10 μl glutamine 3.125, 6.25, 12.5, 25, 50, 100, and 200 mM. 10 μl of GFAT-alpha and 5 μl of GFAT-beta extracts from transfected SF9 insect cells are incubated with 1) 10 μl glutamine 200 mM+10 μl fructose 6-phosphate 3.125, 6.25, 12.5, 25, 50, 100, and 200 mM, and 2) 10 μl fructose 6-phosphate 200 mM+10 μl glutamine 3.125, 6.25, 12.5, 25, 50, 100, and 200 mM in an incubation media containing 10 μl PBS 10×, 10 μl EDTA 50 mM, 10 μl, DTT 10 mM and water to 100 μl. The plate is sealed with a Costar plate sealer and incubated for 60 minutes at 37° C. by floating on a water bath. Additional incubation mixture is kept on ice to add to standard and control samples. […] After a 20-minute incubation at 37° C., the OD is determined for each well at 585 nm. […]
(§2) FIG. 3C is a table illustrating the Km values of the substrates for the GFAT-alpha and GFAT-beta enzymes calculated from the data generated in FIGS. 3A and 3B. […]

[2] = substrate: O=C(CO)[C@@H](O)[C@H](O)[C@H](O)COP(=O)(O)O; experiment: as above; assay type: biochemical, human; settings: other: extracts from transfected SF9 insect cells, other substrate at saturating levels
Procedure: as §1, §2

B1: GFAT-alpha (Homo sapiens; I57T) (protein)
chain: MCGIFAYLNYHVPRTRREILETLIKGLQRLEYRGYDSAGVGFDGGNDKDWEANACKTQLIKKKGKVKALDEEVHKQQDMDLDIEFDVHLGIAHTRWATHGEPSPVNSHPQRSDKNNEFIVIHNGIITNYKDLKKFLESKGYDFESETDTETIAKLVKYMYDNRESQDTSFTTLVERVIQQLEGAFALVFKSVHFPGQAVGTRRGSPLLIGVRSEHKLSTDHIPILYRTGKDKKGSCNLSRVDSTTCLFPVEEKAVEYYFASDASAVIEHTNRVIFLEDDDVAAVVDGRLSIHRIKRTAGDHPGRAVQTLQMELQQIMKGNFSSFMQKEIFEQPESVVNTMRGRVNFDDYTVNLGGLKDHIKEIQRCRRLILIACGTSYHAGVATRQVLEELTELPVMVELASDFLDRNTPVFRDDVCFFLSQSGETADTLMGLRYCKERGALTVGITNTVGSSISRETDCGVHINAGPEIGVASTKAYTSQFVSLVMFALMMCDDRISMQERRKEIMLGLKRLPDLIKEVLSMDDEIQKLATELYHQKSVLIMGRGYHYATCLEGALKIKEITYMHSEGILAGELKHGPLALVDKLMPVIMIIMRDHTYAKCQNALQQVVARQGRPVVICDKEDTETIKNTKRTIKVPHSVDCLQGILSVIPLQLLAFHLAVLRGYDVDFPRNLAKSVTVE
notes: made in house; host or cells: SF9 insect cells (sonicated, centrifuged cell extract)
Km [1]: 1490 µM
Km [2]: 1850 µM
